The source of these data is patent publication US20110021746A1 (published 2011).

In the assay the target is T1, TNF-α (UniProt P01375 77-233, biotinylated).
T1 construct: also called TNF-alpha; biotintylated TNF-α soluble protein (R&D Systems)
The assay can be described thus: Octet BLI, biotinylated TNF-α on streptavidin tips. Here is the method:
The target protein was biotintylated TNF-α soluble protein (R&D Systems) and is at a concentration of 0.25 ug/ml for loading onto the streptavidin sensor tips. […] The Octet was run using the manufacturers protocol for Basic Kinetic Assay.
(In general: Biolayer interferometry detects binding as a change in optical thickness at a sensor tip.)

T1 sequence (P01375 77-233 limits assumed): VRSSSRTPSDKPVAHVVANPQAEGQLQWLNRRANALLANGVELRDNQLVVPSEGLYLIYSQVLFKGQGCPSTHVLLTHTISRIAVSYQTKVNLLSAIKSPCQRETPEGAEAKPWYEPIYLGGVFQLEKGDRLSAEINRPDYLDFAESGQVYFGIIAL

B1: TNF-α binder R41A6 (designed binder)
chain: NVSPPRRARVTDATETTITISWEHSEDDCYSYIYYFQVDAVPANGQTPIQRTISGYETYYTITGLQPGTDYKIYLYTLNSAGFCPPYSKPVVIDAST
notes: 14FN3 variant; for the Octet expressed from pET-20b with pelB signal and C-terminal hexahistidine tag; also called TNF A6
A word on the Kd: it is a measure of binding affinity in units of concentration. Read a low Kd as a tighter complex. For B1, the Kd lay within 20 to 100 nM.
